Laboratory results as given in patent US20250223330A1 (OUTPACE BIO, published 2025).
Residue numbers refer to the chain shown, from its start.

T1: IL2Rb/g-Fc (UniProt P14784 27-239; P31785 23-262, limits assumed)
T1 construct: Captured at 12 ug/mL on ProA tips; also called IL-2/15Rβγ; IL-2Rβγ; not shown: Fc part
T1 sequence (looked up) 1: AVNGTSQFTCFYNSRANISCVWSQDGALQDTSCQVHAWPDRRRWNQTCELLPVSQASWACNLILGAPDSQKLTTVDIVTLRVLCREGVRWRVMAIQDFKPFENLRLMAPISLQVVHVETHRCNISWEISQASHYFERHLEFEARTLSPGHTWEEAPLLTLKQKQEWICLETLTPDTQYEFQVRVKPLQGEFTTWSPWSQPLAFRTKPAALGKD
T1 sequence (looked up) 2: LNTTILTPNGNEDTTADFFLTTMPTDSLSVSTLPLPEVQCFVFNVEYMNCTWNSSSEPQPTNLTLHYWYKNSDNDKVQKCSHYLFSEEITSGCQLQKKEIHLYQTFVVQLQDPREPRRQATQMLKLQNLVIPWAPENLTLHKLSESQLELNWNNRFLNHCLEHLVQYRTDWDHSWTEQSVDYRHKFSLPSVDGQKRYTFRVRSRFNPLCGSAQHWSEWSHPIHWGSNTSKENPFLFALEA

T2: CD25-Fc (UniProt P01589 22-213, limits assumed)
T2 construct: Bought reagent; The same stock (100 ug/mL aliquots) was used as CD25-Fc in the ELISA and as IL2Ra-Fc on ProA tips in the Octet assay; also called IL2Ra-Fc; CD25 (IL2Ra); not shown: Fc part of the bought fusion
T2 sequence (looked up): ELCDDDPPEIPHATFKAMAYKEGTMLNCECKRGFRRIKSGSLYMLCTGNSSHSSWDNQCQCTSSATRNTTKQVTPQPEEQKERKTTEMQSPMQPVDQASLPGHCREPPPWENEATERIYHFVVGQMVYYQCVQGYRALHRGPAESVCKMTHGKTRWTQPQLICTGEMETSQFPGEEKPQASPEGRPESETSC

B1: Designed Cytokine No. 153 (designed binder)
chain: APTSSSTKKTQLQLEHLLLDLQMILNGINNMNADPELVEFLNRWITFCQSIISTGSVDPEELAKELQKLEEELKPLEEVLNLAQSKNFHLRPRDLISNINVIVLELKGSGSGNWSHPQFEK
notes: also called Design 3
B2: Designed Cytokine No. 169 (designed binder)
chain: APTSSSTKKTQLQLEHLLLDLQMILNGINNMNADPELVEFLNRWITFCQSIISTGSLEDLKHLQALEEELKPLEEVLNLAQSKNFHLRPRDLISNINVIVLELKGSGSGNWSHPQFEK
notes: also called Design 1
B3: Designed Cytokine No. 39 (designed binder)
chain: APTSSSTKKTQLQLEHLLLDLQMILNGINNMNADPELVEFLNRWITFCQSLIKKGSNEDLKHLQALEEELKPLEEVLNLAQSKNFHLRPRDLISNINVIVLELKGSGSGGSGNWSHPQFEK
B4: Designed Cytokine No. 40 (designed binder)
chain: B3 chain with M31G
B5: SEQ ID NO 21 (designed binder)
chain: APTSSSTKKTQLQLEHLLLDLQMILNALKKLNINSPMQEFLNRWITFCESNTEDALKHLQALEEELKPLEEVLNLAQSKNFHLRPRDLISNINVIVLELKGS
notes: ELISA captured STII-tagged protein from supernatant; also called Designed Cytokine No. 21
B6: SEQ ID NO 30 (designed binder)
chain: B5 chain with E65R, L75R
notes: ELISA captured STII-tagged protein from supernatant; also called Designed Cytokine No. 30
B7: SEQ ID NO 22 (designed binder)
chain: APTSSSTKKTQLQLEHLLLDLQMILNLAEVDPTMKEFLNRWITFCESNSESALKHLQALEEELKPLEEVLNLAQSKNFHLRPRDLISNINVIVLELKGS
notes: ELISA captured STII-tagged protein from supernatant; also called Designed Cytokine No. 22
B8: SEQ ID NO 33 (designed binder)
chain: APTSSSTKKTQLQAEHLLLDLQMILNGINNYKNPKLTRMLTFGGTATIVEFLNRWITFCESGADEEAAKSLQALEEELKPLEEVLNLAQSKNFHLRPRDLISNINVIVLELKGS
notes: ELISA captured STII-tagged protein from supernatant; also called Designed Cytokine No. 33
B9: SEQ ID NO 20 (designed binder)
chain: APTSSSTKKTQLQLEHLLLDLQMIANALNKLGIESPFLNRWITFCQSVISASDDTREELKHLQALEEELKPLEEVLNLAQSKNFHLRPRDLISNINVIVLELKGS
notes: ELISA captured STII-tagged protein from supernatant; also called Designed Cytokine No. 20
B10: SEQ ID NO 24 (designed binder)
chain: APTSSSTKKTQLQLEHLELDLQMILNLAEVDPTMKEFLNRWITEAQSSNATLKSLQALEEELKPLEEVLNLAQSKNFHLRPRDLISNINVIVLELKGS
notes: ELISA captured STII-tagged protein from supernatant; also called Designed Cytokine No. 24
B11: SEQ ID NO 34 (designed binder)
chain: APTSSSTKKTQLQLEHLLLDLQMILNGINNYKNPKLTEIDPKLVEFLNRWITFCQSAIKSGSNTAKELQALEEELKPLEEVLNLAQSKNFHLRPRDLISNINVIVLELAGS
notes: ELISA captured STII-tagged protein from supernatant; also called Designed Cytokine No. 34
B12: SEQ ID NO 26 (designed binder)
chain: APTSSSTKKTQLQLEHLLLDLQMILNFPVDSEMVEFLNRWITFAEKGTEDALKELQALEEELKPLEEVLNLAQSKNFHLRPRDLISNINVIVLELKGS
notes: ELISA captured STII-tagged protein from supernatant; also called Designed Cytokine No. 26
B13: SEQ ID NO 25 (designed binder)
chain: B12 chain with L52N
notes: ELISA captured STII-tagged protein from supernatant; also called Designed Cytokine No. 25
B14: SEQ ID NO 31 (designed binder)
chain: B12 chain with E61R, L71R
notes: ELISA captured STII-tagged protein from supernatant; also called Designed Cytokine No. 31
B15: SEQ ID NO 23 (designed binder)
chain: B12 chain with E45Q, T48D, D50S, E54H
notes: ELISA captured STII-tagged protein from supernatant; also called Designed Cytokine No. 23
B16: SEQ ID NO 32 (designed binder)
chain: APTSSSTKKTQLQLEHLLLDLQMILNGINNYKNPKLTRMLTFGGTATIVEFLNRWITACQREADPEALQALEEELKPLEEVLNLAQSKNFHLRPRDLISNINVIVLELMGS
notes: ELISA captured STII-tagged protein from supernatant; also called Designed Cytokine No. 32
B17: SEQ ID NO 27 (designed binder)
chain: APTSSSTKKTQLQLEHLLLDLQMILNGINNMNADPELVEFLNRWITFCQSLIKKGSNEDLKHLQALEERLKPLEEVLNRAQSKNFHLRPRDLISNINVIVLELKGS
notes: ELISA captured STII-tagged protein from supernatant; also called Designed Cytokine No. 27
B18: SEQ ID NO 29 (designed binder)
chain: APTSSSTKKTQLQLEHLLLDLQMILNALNKLNINDHIVEFLNRWITFCQSATSDPDLLKHLQALEERLKPLEEVLNRAQSKNFHLRPRDLISNINVIVLELKGS
notes: ELISA captured STII-tagged protein from supernatant; also called Designed Cytokine No. 29
B19: SEQ ID NO 37 (designed binder)
chain: APTSSSTKKTQLQLEHLLLDLQMILNGINNYKNPKLTKLDPSLVEFLNRWITFCQSATSDPDLLKHLQALEEELKPLEEVLNLAQSKNFHLRPRDLISNINVIVLELKGS
notes: ELISA captured STII-tagged protein from supernatant; also called Designed Cytokine No. 37
B20: SEQ ID NO 17 (designed binder)
chain: APTSSSTKKTQLQLEHLLLDLQMILNGMNNGNADPELVEFLNRWITFAQDGSADLKHLQALEEELKPLEEVLNLAQSKNFHLRPRDLISNINVIVLELKGS
notes: ELISA captured STII-tagged protein from supernatant; also called Designed Cytokine No. 17
B21: SEQ ID NO 18 (designed binder)
chain: B20 chain with M28I, G31M
notes: ELISA captured STII-tagged protein from supernatant; also called Designed Cytokine No. 18
B22: SEQ ID NO 35 (designed binder)
chain: APTSSSTKKTQLQLEHLLLDLQMILNGINNYKNPKLTEIDPKLVEFLNRWITFCQTIINGGESATLKHLQALEEELKPLEEVLNLAQSKNFHLRPRDLISNINVIVLELKGS
notes: ELISA captured STII-tagged protein from supernatant; also called Designed Cytokine No. 35
B23: SEQ ID NO 36 (designed binder)
chain: B22 chain with T56S, G61D, A64F, T65S
notes: ELISA captured STII-tagged protein from supernatant; also called Designed Cytokine No. 36
B24: SEQ ID NO 19 (designed binder)
chain: APTSSSTKKTQLQLEHLLLDLQMIANALNKLGIESPFLNRWITFCQSNHEDAAKHLQALEEELKPLEEVLNLAQSKNFHLRPRDLISNINVIVLELMGS
notes: ELISA captured STII-tagged protein from supernatant; also called Designed Cytokine No. 19
B25: SEQ ID NO 38 (designed binder)
chain: APTSSSTKKTQLQLEHLLLDLQMILNGINNMNADPELVEFLNRWITFCQTAISTGKDNLKHLQALEEELKPLEEVLNLAQSKNFHLRPRDLISNINVIVLELKGS
notes: ELISA captured STII-tagged protein from supernatant; also called Designed Cytokine No. 38
B26: SEQ ID NO 28 (designed binder)
chain: APTSSSTKKTQLQLEHLLLDLQMILNGAEVDPKIKEFLNRWITFCQSVIKANKDTREELKHLQALEERLKPLEEVLNRAQSKNFHLRPRDLISNINVIVLELKGS
notes: ELISA captured STII-tagged protein from supernatant; also called Designed Cytokine No. 28

target: T1, IL2Rb/g-Fc; assay: Octet (BLI), IL2Rb/g-Fc captured on ProA tips, cytokine in solution; conditions: not given

Q: How did the Kd turn out when B1 was run?
A: 3.9 nM

Q: Which Kd does the source give for B2 here?
A: ~1.6 nM

target: T2, CD25-Fc; assay: ELISA, STII-tagged cytokine captured on Strep-Tactin plate, CD25-Fc detected; conditions: not given

Q: Does B3 bind?
A: no binding

Q: Does B4 bind?
A: no binding

target: CD25-Fc (UniProt P01589); assay: BLI; conditions: ligand

Q: For WT IL-2 (from UniProt P60568 21-153), which Kd is on record?
A: 20 nM

target: T2, CD25-Fc; assay: ELISA, STII-tagged cytokine captured on Strep-Tactin plate, CD25-Fc detected (FIG. 5A); conditions: not given

Q: Does B5 bind?
A: no binding

Q: Does B6 bind?
A: no binding

Q: Does B7 bind?
A: no binding

Q: Does B8 bind?
A: no binding

Q: Does B9 bind?
A: no binding

Q: Does B10 bind?
A: no binding

Q: Does B11 bind?
A: no binding

Q: Does B12 bind?
A: no binding

Q: Does B13 bind?
A: no binding

Q: Does B14 bind?
A: no binding

Q: Does B15 bind?
A: no binding

Q: Does B16 bind?
A: no binding

Q: Does B17 bind?
A: no binding

Q: Does B18 bind?
A: no binding

Q: Does B19 bind?
A: no binding

Q: Does B20 bind?
A: no binding

Q: Does B21 bind?
A: no binding

Q: Does B22 bind?
A: no binding

Q: Does B23 bind?
A: no binding

Q: Does B24 bind?
A: no binding

Q: Does B25 bind?
A: no binding

Q: Does B26 bind?
A: no binding
